What follows are sequences tested on Escherichia coli TOP10 (assay: shrunken log2 fold change of peptide-encoding DNA abundance (4.5 h post-induction vs induction); higher = less antimicrobial activity (less host growth inhibition)). Conditions: time post-induction: 4.5 h; library: site-saturation at positions 5, 18, 19, 20.
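Also: peptides expressed intracellularly from a pBAD plasmid library in pooled LB shake-flask culture, induced with 0.3% L-arabinose, DNA abundance read by NGS, three biological replicates, DESeq2 with apeglm shrinkage.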

Row | Sequence | shrunken log2 fold change
1 | RRIRERPPRLPRPRPRPIRGPRP | 0.0978
2 | RRIRERPPRLPRPRPRPIRLPRP | -0.0614
3 | RRIRERPPRLPRPRPRPISKPRP | -0.575
4 | RRIRERPPRLPRPRPRPITYPRP | -0.546
5 | RRIRERPPRLPRPRPRPIVIPRP | -0.233
6 | RRIRERPPRLPRPRPRPIVRPRP | -0.0604
7 | RRIRERPPRLPRPRPRPIWHPRP | -0.0406
8 | RRIRERPPRLPRPRPRPIYRPRP | -0.565
9 | RRIRERPPRLPRPRPRPIYTPRP | 0.036
10 | RRIRERPPRLPRPRPRPIYWPRP | -0.0719
11 | RRIRERPPRLPRPRPRPKAWPRP | 0.0873
12 | RRIRERPPRLPRPRPRPKDEPRP | -0.379
13 | RRIRERPPRLPRPRPRPKDKPRP | -0.15
14 | RRIRERPPRLPRPRPRPKEKPRP | 0.121
15 | RRIRERPPRLPRPRPRPKELPRP | 0.00511
16 | RRIRERPPRLPRPRPRPKIGPRP | -0.0947
17 | RRIRERPPRLPRPRPRPKILPRP | -0.0994
18 | RRIRERPPRLPRPRPRPKIMPRP | -1.24
19 | RRIRERPPRLPRPRPRPKINPRP | -0.488
20 | RRIRERPPRLPRPRPRPKNEPRP | -0.315
21 | RRIRERPPRLPRPRPRPKNMPRP | -0.479
22 | RRIRERPPRLPRPRPRPKNTPRP | -0.439

Row | Sequence | shrunken log2 fold change
23 | RRIRERPPRLPRPRPRPKPEPRP | 0.12
24 | RRIRERPPRLPRPRPRPKQDPRP | -0.252
25 | RRIRERPPRLPRPRPRPKQQPRP | -0.0499
26 | RRIRERPPRLPRPRPRPKSYPRP | -0.0792
27 | RRIRERPPRLPRPRPRPKTSPRP | -0.102
28 | RRIRERPPRLPRPRPRPKVEPRP | -0.0672
29 | RRIRERPPRLPRPRPRPKYPPRP | -0.00672
30 | RRIRERPPRLPRPRPRPLAQPRP | 0.21
31 | RRIRERPPRLPRPRPRPLCWPRP | -0.0772
32 | RRIRERPPRLPRPRPRPLDCPRP | -0.161
33 | RRIRERPPRLPRPRPRPLDMPRP | -0.16
34 | RRIRERPPRLPRPRPRPLDPPRP | -0.102
35 | RRIRERPPRLPRPRPRPLDWPRP | -0.0749
36 | RRIRERPPRLPRPRPRPLEEPRP | 0.239
37 | RRIRERPPRLPRPRPRPLFEPRP | -0.0266
38 | RRIRERPPRLPRPRPRPLGNPRP | -0.477
39 | RRIRERPPRLPRPRPRPLGVPRP | -0.171
40 | RRIRERPPRLPRPRPRPLHYPRP | -0.249
41 | RRIRERPPRLPRPRPRPLIGPRP | -0.0644
42 | RRIRERPPRLPRPRPRPLKAPRP | 0.225
43 | RRIRERPPRLPRPRPRPLKDPRP | -0.0646
44 | RRIRERPPRLPRPRPRPLKFPRP | -0.377

Row | Sequence | shrunken log2 fold change
45 | RRIRERPPRLPRPRPRPLKHPRP | -0.425
46 | RRIRERPPRLPRPRPRPLKMPRP | -0.175
47 | RRIRERPPRLPRPRPRPLLCPRP | -0.183
48 | RRIRERPPRLPRPRPRPLLQPRP | -0.0771
49 | RRIRERPPRLPRPRPRPLNAPRP | -0.113
50 | RRIRERPPRLPRPRPRPLPSPRP | -0.0852
51 | RRIRERPPRLPRPRPRPLQAPRP | 0.167
52 | RRIRERPPRLPRPRPRPLRGPRP | 0.529
53 | RRIRERPPRLPRPRPRPLRIPRP | -0.277
54 | RRIRERPPRLPRPRPRPLRLPRP | 0.304
55 | RRIRERPPRLPRPRPRPLSAPRP | -0.229
56 | RRIRERPPRLPRPRPRPLSFPRP | 0.329
57 | RRIRERPPRLPRPRPRPLSKPRP | -0.579
58 | RRIRERPPRLPRPRPRPLTAPRP | -0.286
59 | RRIRERPPRLPRPRPRPLVYPRP | -0.309
60 | RRIRERPPRLPRPRPRPLWRPRP | 0.0888
61 | RRIRERPPRLPRPRPRPMCHPRP | 0.0346
62 | RRIRERPPRLPRPRPRPMDEPRP | -0.153
63 | RRIRERPPRLPRPRPRPMDNPRP | -0.626
64 | RRIRERPPRLPRPRPRPMDVPRP | -0.0821
65 | RRIRERPPRLPRPRPRPMFAPRP | 0.0495
66 | RRIRERPPRLPRPRPRPMFMPRP | -0.468

Row | Sequence | shrunken log2 fold change
67 | RRIRERPPRLPRPRPRPMFNPRP | -0.607
68 | RRIRERPPRLPRPRPRPMHSPRP | 0.0314
69 | RRIRERPPRLPRPRPRPMIWPRP | -0.21
70 | RRIRERPPRLPRPRPRPMLPPRP | -0.397
71 | RRIRERPPRLPRPRPRPMNPPRP | -0.488
72 | RRIRERPPRLPRPRPRPMPAPRP | -0.0153
73 | RRIRERPPRLPRPRPRPMQQPRP | -0.0321
74 | RRIRERPPRLPRPRPRPMTLPRP | -0.000163
75 | RRIRERPPRLPRPRPRPMWCPRP | 0.0762
76 | RRIRERPPRLPRPRPRPMYEPRP | -0.00246
77 | RRIRERPPRLPRPRPRPMYIPRP | -0.289
78 | RRIRERPPRLPRPRPRPNAGPRP | 0.0608
79 | RRIRERPPRLPRPRPRPNCAPRP | 0.172
80 | RRIRERPPRLPRPRPRPNCFPRP | -0.195
81 | RRIRERPPRLPRPRPRPNFPPRP | -0.169
82 | RRIRERPPRLPRPRPRPNGDPRP | -0.0249
83 | RRIRERPPRLPRPRPRPNGSPRP | -0.263
84 | RRIRERPPRLPRPRPRPNHCPRP | -0.0763
85 | RRIRERPPRLPRPRPRPNHFPRP | -0.799
86 | RRIRERPPRLPRPRPRPNLCPRP | -0.13
87 | RRIRERPPRLPRPRPRPNMAPRP | -0.163
88 | RRIRERPPRLPRPRPRPNPAPRP | 0.0424

Row | Sequence | shrunken log2 fold change
89 | RRIRERPPRLPRPRPRPNPCPRP | -0.226
90 | RRIRERPPRLPRPRPRPNPKPRP | -0.0343
91 | RRIRERPPRLPRPRPRPNPRPRP | 0.134
92 | RRIRERPPRLPRPRPRPNQAPRP | -0.0316
93 | RRIRERPPRLPRPRPRPNSMPRP | -0.864
94 | RRIRERPPRLPRPRPRPNSPPRP | -0.00647
95 | RRIRERPPRLPRPRPRPNTRPRP | -0.0785
96 | RRIRERPPRLPRPRPRPNTVPRP | -0.595
97 | RRIRERPPRLPRPRPRPNVHPRP | -0.344
98 | RRIRERPPRLPRPRPRPNVTPRP | -0.199
99 | RRIRERPPRLPRPRPRPNWDPRP | -0.125
100 | RRIRERPPRLPRPRPRPNWKPRP | -0.0166
101 | RRIRERPPRLPRPRPRPNYEPRP | -0.182
102 | RRIRERPPRLPRPRPRPNYGPRP | -0.0315
103 | RRIRERPPRLPRPRPRPNYPPRP | -0.509
104 | RRIRERPPRLPRPRPRPPAEPRP | 0.758
105 | RRIRERPPRLPRPRPRPPAPPRP | 0.569
106 | RRIRERPPRLPRPRPRPPATPRP | 0.35
107 | RRIRERPPRLPRPRPRPPCLPRP | -0.579
108 | RRIRERPPRLPRPRPRPPCMPRP | -0.272
109 | RRIRERPPRLPRPRPRPPDCPRP | 0.0792

From the supplement of paper PMC9112550, “Optimization of the antimicrobial peptide Bac7 by deep mutational scanning” (BMC Biology, 2022)
